From a protein production outcome set (Wang et al. 2014)

Assay: label from the status in PepcDB records

| Sequence | protein production |
| --- | --- |
| MKKLFMSAVALLFAGALWAQENPLWMRHCAISPDGTTIAFTYKGDIFTVPVSGGKATQITTNPAFDTTPIWSPDSKQIAFASDRMGSMDVFIVSKDGGEPRRLTTFSGGETPVAFTDAGHILFTADIMPSTEDAGFPSNGQFQQIYQIPVSGGRPVMFSSMPMECISINKEGTILYQDKKGYEDYWRKHQKSPIARDIWMLRPGQTPRYEKQTTFIGEDREPVWAPDGKSFYYLSEENGTFNVYQRTPGSDTSKQVTHHKQHPVRFLSMASNGNLCYGFDGEIYTLAPGGKPQKVSVKILSDRNDKDLIRQIKTSGATEMAVSPDGKEVAFILRGDVYVTSVEYKTTKQVTNTPCQERGIDFAPDGRTLVYASERGGLWQLYTSTIVRKDEKQFTYATELKEERLTNSDIASFNPKYSPDGKEIAFLENRTAIRVINLKTKKVRTVMDAQYQYSYSDGDQWFEWSPDSKWILSEFIGIGGWNNKDIVLLNADGKGEMHNLTESGYSDGNAKWVLGGKAMVWFSDRAGYRSHGSWGAQYDAYIMFFDVDAYDRFRMNKEDLALLEEAEKAEKAEKEKAEKKKKENKKDDKKKDAKEKNKKDGDEEKKEEVKPLKFDLDNRFDRIVRLTVNSSFMGDAVLTPKGDKLYYLAAFESGYDLWEHDLKENSTKILLKGVGGGSLLPDKKGENIFMCTGGGMKKIEIAGSKTTPIAFESFFDYQPGGERAYIFDHVWQQVDDKFYVKDLQGVDWPLYKKSYEKFLPYINNNYDFAELLSEMLGELNASHTGARYSGAGGALATAALGVFYDDTYNGDGLKIKEIIEQGPFTLKKTDVKPGCIIEKVDGTLIKKGEDYFPLFEGKVGRKVLLSVYDPATKKRFEETVKAISYGAQRELLYKRWVERNRKKVEELSGGRLGYVHIKGMDSQSFRKMYSELLGRYRNKEAVVVDVRHNGGGWLHDDVVTLLSGKEYQRFVPRGQYIGSDPFNKWLKPSCMLVCEDNYSNAHGTPYVYKTLGIGKLVGTPVAGTMTAVWWERQIDPSLVFGIPQVGCMDMQGNYLENHTLEPDVLIYNEPAASLKGEDAQLKAAVDCLLKELPKK | failed |
| MKKLIIAALGLTLILSGCAPKLDSNDKVVQKDDKKAETGIMTKNQISSNYYKTVLPYKASKSRGLVVSNIYSRYDINELESGLMRVSQNKYSPDNYLFQEGQYLDKETLEKWLDRKSEKNPNGLNPESNGDGKDRKPIYLAHILEQDYLKQTDKDTVALGGISIALAMNSVDYYQKEQYGDTFEQEISDSDLLAQGKEMSGTVLNRIRQTKGLENVPVTIAIYKQGPRDAVAPGNFLTYATANGDSLSSWKDVEEKNYVLPSTESAKDHKTDNDNFLNFKKAIEDYYPNFTGVVGRARYEDGQLAELSIDIPLQFYGQAEIIGFTQYVTDLVGQHIPKTADLQVNISTSDGPAALITRKANEDAATAHIYD | failed |
| MKKLLRNLFGSGREEEKRSASDAMSGREQIVTNSEKSNLSTDPDHVNRQADTLKFDAIRAMNMGELVFATEALRKAMELRPEFETRYYLTEALLRRHLTEEALAQMNLLLEEVPMHTATLLNRAKLRLEQNDPSRALEDCGTGIESTSELEEQALFLYYGASAMKDMKNLKDALCLLKQAIEKNDAFIPARLLRARILIDLERYEEATQDLDWVAASDPEEEQVPMLRARLFMLEGKQQNAIQAYEELLSLDPFNEEGHCGIATLMIKEGRSAEAETFLREAIEEMPVQRNLILMLVEILENKGQTQEAAEWRAKLPEAEVESEAVNFNDLYKGNLY | failed |
| MKKMAAAESMEAEICINREIPPGLFPAVKGTDDLMAEGDIMSLLESIKKTEGGSGEVSVEDKMDEIFAKLEKSQVLLIQGDTGCGKTTKIPKYLLRKYGKIVCSQPRRIAAVSIAKKVAVDMKGKIGEDVGYSIRFDDMSSGRTRLKYVTDGVLLREIKNDKHLKKYDVVIIDEAHERSVNIDILLGYLKSILSERKDLRVVIMSATLNSEKFASFFRCQTVEIRHRMFPLEIFFLKKSDVADYVDEAMKTVVQIHRGEESGDILVFLTGRDEINSGREILMEVLGNDAEVCCIYSTLSPEEQEAVFRKTKKRKIVLATNIAETSITIEGVRYVVDSGRAKQMRYSASFGMDILEVVWISKAQAKQRAGRAGRTQAGKVFRMYSKEEYQKMDDNTTPEIFCCNLGKIVLELKSIGVDDIVNFNLIDKPDASNVKKALEMLYYLRAIGGDGKITSIGVKASTIPLDPELAVSLIVSSELGCLEDVSIIAAMLSVGNVWLDVPRYSQSYKAFLGARAAHFDKRGDHFLLLKIYRRWEKTGFKISHLKRWFLNVKTMLQTVKIKKQLCSMFRSPCKSDESGILPSLCAGYFMNVAKLVGESYVSIFNDTPCFIHYTSCMSRQNAKYILYHTLCRTGKEYARYCVGVTLEDLLKGANHMFAKVRKTEK | failed |
| MKKMLKVMLATLVLGWAVMAHAEDPHVEYTDAIGKGDLKVVKQYFNNPYKVDELFFAWSGLEIAANKGQLEMVKFFVENGADVNYKHPITKMTALHLAAYQGNKDVVKYLIDHGADVNAKLRGNVSILRALRDEGRTDMVDFLIAAGAKDDGCQEKKCY | failed |
| MKKMLPESKVESIRKEGFLNRAVEAYRFFYPTVSNVSNFKALHDLGITENHDFIIQLTTPDLNVLTQNSDTPYCLGTGNTENGPVVIELPLGAIVGVADDINFKFITNMGLTGDEEGKGAKYLYLPPNYDGDIPEGYIVRKPSSFRFLICLRAMVHQASDYEKAFELLKTVKFYPLKEAKNNPTSTFHDFSHRKAISTPYYVEGKFDYWEVIKWALDNDETDPEYYQMYGLLKAIGLAPNKEFNPDSDTKALLIEAAEKADKMMFVNSFNTDDPAAIVWPGKNWEWAVYGENNDFYEKTYLNLPVRERWFYQATLETHMMFMHKVGFGSVYMLGVKDKEGNYLDGGKSYTLKVPTPVPTSIFWSVTVYEMDTRSEIVTEQFMPALNSIKDTFEADADGNTTLYFGPNPPEDESLPWIQTVPDANWFTYFRIYGPTEPAFDNSWQLYDFEEVK | failed |
| MKKNHVVIGVIIVAALALLFTLSIQIARLILGDGPMVSSGEGVGYVEVKGPILESEEIVKQLSEMRKKTNVKAVVLRIESPGGVIGPSQEIYEAVKKLAKTKKVVVSMGSVAASGGYHIAIPAAVIYANPGTITGSIGVLMKLANVEGLMDKVGMKAFTLKSGKFKDAGSPVRALTDEDRALLQGVIDNLHTQFVKAVAEARKLPVEEVRRLADGRVYTGEQAVSLKLVDRLGTLEDAVEEAGRLAGIKGEPTLLMPPKKRKHLRDYLLEEASGFFREIVRREGGFSVNYELDPAVGNGGRLEHHHHHH | not failed |
| MKKNLLYLSCALMCMLGFLSSCKDDEKEIPPVVEDVVAQYTGDKVKVTLGGEAVSGDAQIDLVQQDDKSLTIKLLNIIPDVKEFSIPNAEFEATTRSAYISKLSGKVSNAVVGYDVTFEGVVDEGVLTASITATEIKGDSINAKKAGLTGKTFKGKMTINVSNIPTPIEMEQRVYTSVVSKDTSAIKLKINDFAFQGLKLGDISLDTVAVRHRGEQDGKPIYGFKTKSQEMTLEAVGKVLIDANGTIIGEKMELSLNVNAVTAGLTVGVDFSGNIVEESTDTKATITVTGDAVAEGVTVSGNTYTFKVWESTPDDQLVFIPKIEIPATAVLDSIIIYDNRNKKVSAVEPNTAIDFSQLKENYYVGYHVTPEDIRYPSKKMLKMVRIAELNPVYDMATWVADGDFEKPNGLTTSNLAAAFFPMFGIDVPTPVVKASDNAAEITTSRTVSATLPSTLVPGVTAGTMFLGEFKVDITNTLKSTHFGVPYRVKPVNFKITYKYTPGTTFYKTVVKNNANDTEVVPNEKDECSINAYLYEVDSYAETLDGTNINTSNKVIMKAVLEDGSAKADYVTLTIPFKETGNGSFDPTKKKYKLAIVCSSSKKGDQFMGADGSKLWVKYLEVTR | failed |
| MKKPVYMKGGLHWLRNDGAIVAFNPETEKARLISIRFPKELCSKTLFTAADNNLILISATEEVFYVYAVENILTDPKWVVLKQIRNGVLDEKMLYSWYPEAYDGKCLMLREILKKDHYKQVLHGYDLRANKWEVIGSIPGWYTSALDFYQFTPSLSSVIGPDAKEEEEILACDHKKISSINSIIRMLDGISS | failed |
| MKKRFCFVIITLLLIFILGSCNKVTSIRRLQELEEGVSNPNTEAELKDAIRKYEKRVDDIMIAEERIGIWYKILGSRYMDQKMYKKALKAFQSALEYYPENQNLFYQAGLAASLTAKNSLDFELTGTDIEKKRYFDLAVSAYKRALEIDPKHAKAVYALSVLYIFELNRPTEAIPILEKITEWEKKPIDHLFLLGAAYYMTGENEKAIAVYERIIEISSSAEKKAKAESNIREIRSSGGR | failed |
| MKKRKLLAVTLLSTILLNSAVPLVVADTSLRNNTSSTDQPTTADTATDAESETAKKDKKSKETASQHDTQKDHKPSHTHPTPPSNDTKQTDQASSEATDKPNKDKNDTKQPDSSDQSTSSPKDQSSQKESQNKDGRPTPSPDQQKDPTPDKTPEKSADKIPEKATEKTPEPNRDAPKPIQPPLAAAAPVFIPWRESDKDLSKLKPSSRSSAAYVRHWTGDSAYTHNLLSRRYGITAEQLDGFLNSLGIHYDKERLNGKRLLEWEKLTGLDVRAIVAIAMAESSLGTQGVAKEKGANMFGYGAFDFNPNNAKKYSDEVAIRHMVEDTIIANKNQTFERQDLKAKKWSLGQLDTLIDGGVYFTDTSGSGQRRADIMTKLDQWIDDHGSTPEIPEHLKITSGTQFSEVPVGYKRSQPQNVLTYKSETYSFGQCTWYAYNRVKELGYQVDRYMGNGGDWQRKPGFVTTHKPKVGYVVSFAPGQAGADATYGHVAVVEQIKEDGSILISESNVMGLGTISYRTFTAEQASLLTYVVGDKLPRP | failed |
| MKKRLLKSFSFSYNSQDENRRLLERLMQYKSKDADKLNEENESIIRKRSAKLKRDLEDAVREPSSSSNAASSPGAASLQRNSSPAQFVGGLIGDEDFDEAAINGAMEAIGLDDNEYISARFTAGEIAENSRASIDTLKATGYLGQANPTKILMKFEAHENESHAVRWSPVERMVATGGADRKVKLWDIGKNSTEPRAVLSGSSAGINSVDFDSTGAYILGTSNDYGARVWTVMDNRLRHTLTGHSGKVMAAKYVQEPIKVVTGSHDRTLKIWDLRSIACIETKFAGSSCNDLVTTDSLGSTIISGHYDKKIRFWDIRTEKQADDVLMPAKITSLDLSKDCNYLICSVRDDTIKLLDLRKNQVISTFTNEHFKISCDFARASFNSSGLKIACGSADGAIYIWNVNGFLEATLKGHSTAVNAVSWSPNNNMLASVGKNKRCTIYSES | failed |
| MKKRLSLDRRFLPYIKKAGGVLVKKQMGAYVSLAAAMAIVGSSVVVGKLMVERIPVFLSSGLRFLIASVVLLMLLFCIEKGFPALTKKDVFVLLVQSFTGVFLFSICLLYGVQYTTGTESGILTSTTPMLIGILSFFLLREKIEKKTLIGILLAVCGVMAINLFGAGSQDGTPHALFGNMLIIAAVIGEALFTLMAKLLSPHISALAISTFVSLFGFLFFLPFALFEASSFDYSVPTVLDWSYVLYYALFVTVLAFYLWYSGVTKVPAGVSGIFTSVLPVSAVILSGVILKEPFEFVHFIGIACVIGGIFVTVIKKKQPDAYPAAEEKTL | failed |
| MKKSLCLSFFLTFSNPLQALVIELLEEIKTSPHKGTFKAKVLDSKKPRQVLGVYNISPHKKLTLTITHISTAIVYQPLDEKLSLETTLNPNRPTIPRNTQIVFSSKELKESHPHQMPSLNAPMQKPQNKPHSSQQPSQNFSYPEPKLGSKNSKNSLLQPLAIPSKISPTNETQTPTNDTKPPLKHSSEDQESNLFITPPTEKTLPNNTSNADISENNESNENKDNVEKQAIRDANIKEFACGKWVYDDENLQAYRPSILKRVDEDKQTATDITPCDYSTAENKSGKIITPYTKISVHKTEPLEEPQTFEAKNNFAILQARSSTEKCKRARARKDGTTRQCYLIEEPLKQAWESEYEITTQLVKAIYERPKQDDQVEPTFYETSELAYSSTRKSEITHNELNLNEKFMEFVEVYEGHYLNDIIKESSEYKEWVKNHVRFKEGVCMALEIEEQPRAKSTPLSIENSRVVCVKKGNYLFNEV | failed |
| MKKSLDEHAERFSDHADAYDEDQDSAAYRACVNFVVDHAAPESDDVVLDLGTGTGAIAFALASDAAEIIGRDISDGMLEKAREKADGRGVENVSFGDGRFRAPNVDRPVDIVTSNFAMHHLGDDEKREAIDTIADLGPRRIVLGDVMLFGDDDPDAPFYSPEVDDPATVGVLADAFTDAGYALTAVEMVTEQAGVLVAERVKSDLEHHHHHH | not failed |
